{"source": "paper PMC3906829", "molecular_target": "membrane-embedded MraY from Aquifex aeolicus used for structure-guided disulfide cross-bridge experiments (Aquifex aeolicus) (UniProt O66465)", "test": "cross-linking"}
{"substance": "membrane-embedded MraY from Aquifex aeolicus used for structure-guided disulfide cross-bridge experiments (from UniProt O66465 1-359) (enzyme)", "values": [{"measurement": "stoichiometry N", "value": 2}]}
